Test results published in patent US20210363269A1 (ALX ONCOLOGY, published 2021).

T1: mouse 129 SIRP-α D1 domain (mouse (129 strain), UniProt P97797 32-150)
T1 construct: also called m129
T1 chain: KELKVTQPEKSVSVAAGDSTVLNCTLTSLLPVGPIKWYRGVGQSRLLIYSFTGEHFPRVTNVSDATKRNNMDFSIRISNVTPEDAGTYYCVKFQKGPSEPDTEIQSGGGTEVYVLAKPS

T2: C57BL/6 mouse SIRP-α D1 domain (mouse (C57BL/6 strain), UniProt P97797 32-148)
T2 sequence: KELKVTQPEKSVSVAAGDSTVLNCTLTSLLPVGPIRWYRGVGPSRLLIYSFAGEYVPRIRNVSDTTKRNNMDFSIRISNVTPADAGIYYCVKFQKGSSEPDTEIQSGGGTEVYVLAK

T3: cynomolgus SIRP-α D1 domain (cyno2) (cynomolgus monkey, UniProt Q5TFQ8 30-148 (human entry), limits assumed)
T3 chain: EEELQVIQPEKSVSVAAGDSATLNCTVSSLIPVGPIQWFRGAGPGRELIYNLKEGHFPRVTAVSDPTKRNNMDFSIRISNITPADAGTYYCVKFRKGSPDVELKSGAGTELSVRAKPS

T4: NOD mouse SIRP-α D1 domain (mouse (NOD strain))
T4 chain: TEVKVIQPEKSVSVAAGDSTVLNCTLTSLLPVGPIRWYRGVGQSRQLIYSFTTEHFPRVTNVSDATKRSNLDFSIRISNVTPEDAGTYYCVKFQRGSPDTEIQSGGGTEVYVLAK

T5: C57BL/6 mouse SIRP-α D1 domain (mouse (C57BL/6 strain), UniProt P97797 32-148)
T5 sequence: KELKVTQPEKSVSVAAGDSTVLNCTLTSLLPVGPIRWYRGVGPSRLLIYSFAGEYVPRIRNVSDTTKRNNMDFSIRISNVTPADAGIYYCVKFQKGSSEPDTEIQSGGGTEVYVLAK

T6: BALB/c mouse SIRP-α D1 domain (mouse (BALB/c strain))
T6 chain: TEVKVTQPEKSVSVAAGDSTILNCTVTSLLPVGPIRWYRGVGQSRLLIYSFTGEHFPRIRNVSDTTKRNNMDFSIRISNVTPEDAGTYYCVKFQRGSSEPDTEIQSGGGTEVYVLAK


How the values were obtained:
human SIRPγ isoform 1 [1] = target: T7, human SIRPγ isoform 1 (human, UniProt Q9P1W8 29-147); assay: SPR
T7 construct: also called SIRPg; sirpg
In short: (§1)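 scFv-Fc antibody clones were captured from pre-filtered culture media onto anti-human IgG Fc, amine-coupled at about 4000 RU on a GLC chip in a ProteOn XPR36 instrument. SIRP analytes were passed over in PBS pH 7.4 with 0.01% Tween-20 at 25° C, and responses were double-referenced against interspot and buffer-blank signals. Curves were fitted to a 1:1 Langmuir model. Dissociation rate constants (koff) were taken from those fits.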
T7 sequence (Q9P1W8 29-147 limits assumed): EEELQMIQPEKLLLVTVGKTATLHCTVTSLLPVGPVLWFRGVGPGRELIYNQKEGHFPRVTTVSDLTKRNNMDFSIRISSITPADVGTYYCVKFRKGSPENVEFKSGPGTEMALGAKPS

[2] = target: T1, mouse 129 SIRP-α D1 domain; assay: SPR
In short: as §1

[3] = target: T2, C57BL/6 mouse SIRP-α D1 domain; assay: SPR
In short: as §1

[4] = target: T8, human SIRP-α v1 D1 domain (human, UniProt P78324 31-149); assay: SPR, Langmuir fit
T8 construct: also called human v1
In short: as §1
T8 sequence (P78324 31-149 limits assumed): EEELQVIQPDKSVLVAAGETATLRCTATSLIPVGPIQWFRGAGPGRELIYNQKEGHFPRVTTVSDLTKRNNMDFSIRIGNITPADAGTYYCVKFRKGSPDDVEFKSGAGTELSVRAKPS

[5] = target: T9, human SIRP-α v2 D1 domain (human); assay: SPR, Langmuir fit
T9 construct: also called human v2
In short: as §1
T9 sequence (chain, as listed by the source limits assumed): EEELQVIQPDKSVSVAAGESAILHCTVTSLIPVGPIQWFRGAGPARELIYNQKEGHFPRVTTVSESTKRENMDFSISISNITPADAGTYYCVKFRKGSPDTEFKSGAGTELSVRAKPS

[6] = target: T3, cynomolgus SIRP-α D1 domain (cyno2); assay: SPR, Langmuir fit
In short: as §1

human SIRPβ isoform 1 = target: T10, human SIRPβ isoform 1 (human, UniProt O00241 30-148); assay: SPR, Langmuir fit
T10 construct: also called SIRPb; sirpb1
T10 sequence (O00241 30-148 limits assumed): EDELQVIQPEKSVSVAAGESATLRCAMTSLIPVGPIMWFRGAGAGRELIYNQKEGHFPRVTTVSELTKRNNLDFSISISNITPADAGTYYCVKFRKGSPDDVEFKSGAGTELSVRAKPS
In short: as §1

[7] = target: T11, human SIRP-α v1 D1 domain (human, UniProt P78324 31-149); assay: SPR, antibody immobilised on GLC chip
T11 construct: also called human v1; human α v1
Procedure: (§2) All experiments were performed at 25° C. using a SPR-based ProteOn XPR36 biosensor (BioRad, Inc, Hercules, Calif.) equipped with GLC or NLC sensor chips. […] Purification was carried out by standard Protein A affinity column chromatography and eluted antibodies were stored in PBS buffer.
(§3) For the method using GLC chip, the analytes were injected and flowed over anti-SIRPα antibodies immobilized (˜1000 RUs) on GLC chips using Proteon™ Amine Coupling Kit. For the immobilization step, GLC chip was activated with EDAC/Sulpho-NHS 1:1 (Biorad) diluted 1/100 for 300 s at 25 μL/min. Anti-SIRPα antibodies were diluted to 80 nM concentration in 10 mM sodium acetate buffer pH 4.5 and immobilized to the chip at 30 μL/min for 50 s. Chip was inactivated with ethanolamine for 300 s at 25 μL/min. The analytes (e.g., SIRP-α from different species, SIRP-β, SIRP-γ) were injected in a “one-shot” kinetic mode at nominal concentrations of 100, 33, 11, 3.7, 1.2 and 0 nM. Association times were monitored for 90 s at 100 μL/min, and dissociation times were monitored for 1200 s. The surfaces were regenerated with a 2:1 v/v blend of Pierce IgG elution buffer/4M NaCl. […]
T11 sequence (P78324 31-149 limits assumed): as the sequence (P78324 31-149 limits assumed) above

human SIRPγ isoform 1 [8] = target: T12, human SIRPγ isoform 1 (human, UniProt Q9P1W8 29-147); assay: SPR, antibody immobilised on GLC chip
T12 construct: also called sirpg; sirp-g
Procedure: as §2, §3
T12 sequence (Q9P1W8 29-147 limits assumed): as the sequence (Q9P1W8 29-147 limits assumed) above

[9] = target: T13, human SIRP-α v2 D1 domain (human); assay: SPR, antibody immobilised on GLC chip
T13 construct: also called human v2; human α v2
Procedure: as §2, §3
T13 sequence (chain, as listed by the source limits assumed): as the sequence (chain, as listed by the source limits assumed) above

[10] = target: T4, NOD mouse SIRP-α D1 domain; assay: SPR, antibody immobilised on GLC chip
Procedure: as §2, §3

[11] = target: T5, C57BL/6 mouse SIRP-α D1 domain; assay: SPR, antibody immobilised on GLC chip
Procedure: as §2, §3

[12] = target: T6, BALB/c mouse SIRP-α D1 domain; assay: SPR, antibody immobilised on GLC chip
Procedure: as §2, §3

Binder	koff [4] [s⁻¹]	koff [5] [s⁻¹]	koff [6] [s⁻¹]	koff (human SIRPβ isoform 1) [s⁻¹]	Kd [7] [nM]	Kd (human SIRPγ isoform 1 [8]) [nM]	Kd [9] [nM]	Kd [10] [nM]	Kd [11] [nM]	Kd [12] [nM]	binding result (human SIRPγ isoform 1 [1])	binding result [2]	binding result [3]
S149 (scFv, V domains shown, scFv-Fc format (VL-linker-VH on human IgG1 Fc)) VH: DVQLVESGGGVVRPGESLRLSCAASGFTFSNFAMNWVRQAPGEGLEWVSLISVTATTYYADSVKGRFTISRDNSKNTLYLQMNSLRAEDTAVYYCAKVTWNNLFDYWGLGTLVTVSS VL: EIVLTQSPGTLSLSPGERATLSCRASQPIDSYLAWYQQKPGQAPRLLIYNTVTRATGIPDRFSGSGSGTDFTLTINRLEPEDFAVYYCQHQYDWPPYIFGGGTKVEIK	0.00415	0.000544	0.00258	0.000331							no binding (tested: Koff > 5 × 10^3 (legend))	no binding (tested: Koff > 5 × 10^3 (legend))	no binding (tested: Koff > 5 × 10^3 (legend))
antibody 136 variant Mut/mut (antibody, human IgG1, V domains shown, Human IgG1 with L234A/L235A/G237A/N297A; Labels are light chain/heavy chain) VH: EVQLVESGGGVVQPGRSLRLSCAASGFTFSSYDVNWVRQAPGKGLEWVSLISGSGEIIYYADSVKGRFTISRDNSKNTLYLQMNSLRAEDTAVYYCAKENNRYRFFDDWGQGTLVTVSS VL: EIVLTQSPGTLSLSPGERATLSCRASQSVYTYLAWYQQKPGQAPRLLIYGASSRATGIPDRFSGSGSGTEFTLTISSLQSEDFAVYYCQQYYDRPPLTFGGGTKVEIK					7.32	28.8	12.7	5.42	21.6	2.67			
antibody 136 variant MutRv_Q38E/mut (antibody, human IgG1, V domains shown, Human IgG1 with L234A/L235A/G237A/N297A; Labels are light chain/heavy chain) VH: EVQLVESGGGVVQPGRSLRLSCAASGFTFSSYDVNWVRQAPGKGLEWVSLISGSGEIIYYADSVKGRFTISRDNSKNTLYLQMNSLRAEDTAVYYCAKENNRYRFFDDWGQGTLVTVSS VL: EIVLTQSPGTLSLSPGERATLSCRASQSVYTYLAWYQEKPGQAPRLLIYGASSRATGIPDRFSGSGSGTEFTLTISSLQSEDFAVYYCQQYYDRPPLTFGGGTKVEIK					6.18	19.3	12.5	5.98	33.1	2.98			

Continued by falling Kd [7], values first:

koff [4] [s⁻¹]	koff [5] [s⁻¹]	koff [6] [s⁻¹]	koff (human SIRPβ isoform 1) [s⁻¹]	Kd [7] [nM]	Kd (human SIRPγ isoform 1 [8]) [nM]	Kd [9] [nM]	Kd [10] [nM]	Kd [11] [nM]	Kd [12] [nM]	Binder	binding result (human SIRPγ isoform 1 [1])	binding result [2]	binding result [3]
				4.99	61.7	8.28	2.44	13.3	1.64	antibody 136 variant MutRv_S22T/mut (antibody, human IgG1, V domains shown, Human IgG1 with L234A/L235A/G237A/N297A; Labels are light chain/heavy chain) VH: EVQLVESGGGVVQPGRSLRLSCAASGFTFSSYDVNWVRQAPGKGLEWVSLISGSGEIIYYADSVKGRFTISRDNSKNTLYLQMNSLRAEDTAVYYCAKENNRYRFFDDWGQGTLVTVSS VL: EIVLTQSPGTLSLSPGERATLTCRASQSVYTYLAWYQQKPGQAPRLLIYGASSRATGIPDRFSGSGSGTEFTLTISSLQSEDFAVYYCQQYYDRPPLTFGGGTKVEIK			
				0.717	40	1.86	0.68	15.3	0.422	antibody 136 variant MutRv_I2T/mut (antibody, human IgG1, V domains shown, Human IgG1 with L234A/L235A/G237A/N297A; Labels are light chain/heavy chain) VH: EVQLVESGGGVVQPGRSLRLSCAASGFTFSSYDVNWVRQAPGKGLEWVSLISGSGEIIYYADSVKGRFTISRDNSKNTLYLQMNSLRAEDTAVYYCAKENNRYRFFDDWGQGTLVTVSS VL: ETVLTQSPGTLSLSPGERATLSCRASQSVYTYLAWYQQKPGQAPRLLIYGASSRATGIPDRFSGSGSGTEFTLTISSLQSEDFAVYYCQQYYDRPPLTFGGGTKVEIK			
